The test deals with recombinant B7-H4 protein (Phe29 to Ala258) (Homo sapiens, UniProt Q7Z7D3). In words: ELISA. In general terms: ELISA stands for enzyme-linked immunosorbent assay.

One may read the EC50 as the concentration that produces a half-maximal response.

Sequence of recombinant B7-H4 protein (Phe29 to Ala258) (Q7Z7D3 29-258): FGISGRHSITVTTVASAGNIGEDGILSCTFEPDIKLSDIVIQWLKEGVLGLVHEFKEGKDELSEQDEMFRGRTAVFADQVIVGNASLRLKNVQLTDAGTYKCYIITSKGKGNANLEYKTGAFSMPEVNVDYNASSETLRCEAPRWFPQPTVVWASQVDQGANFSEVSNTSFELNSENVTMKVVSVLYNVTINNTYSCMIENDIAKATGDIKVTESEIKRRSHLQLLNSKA

B1: anti-B7-H4 scFv S2 (scFv, V domains shown)
VH: AVTLDESGGGLQTPGGGLSLVCKASGFTFSSYGMGWMRQVPGKGLEYVAVIDAGSGTWYATAVKGRATISRDNGQSTVRLQLNNLRAEDTATYYCAKSANAGAPDGAWIDAWGHGTEVIVSS
VL: LTQPSSVSANLGGTVEITCSGGSGGYGWFQQKSPGSAPVTLIYNNNKRPSDIPSRFSGSKSGSTATLTITGVRAEDEAVYYCGGWDSIDSGIFGAGTTLTVL
Turning to B1, the concentration giving a half-maximal response (EC50) is about 22 nM.

B2: anti-B7-H4 scFv S4 (scFv, V domains shown)
VH: AVTLDESGGGLQTPGGALSLVCKASGFTFSSYGMGWMRQVPGKGLEYVAVIDAGSGTWYATAVKGRATISRDNGQSTVRLQLNNLRAEDTATYYCAKSANAGAPDGAWIDAWGHGTEVIVSS
VL: LTQPSSVSANLGETVKITCSGGSYSYGWYQQKSPGSAPVTVIYDNNKRPSDIPSRFSGSKSGSTGTLTITGVQAEDEAIYYCGSRDSNTGYAAFGAGTTLTVL
With B2, the concentration giving a half-maximal response (EC50) is about 33 nM.
